Assay results published in US20160271157A1, “BETA-CATENIN” (UCL BUSINESS PLC, priority 2013, published 2016).

Experiments:
[1] = tested on: 253J urinary tract (bladder) cancer cell line; experiment: Live [Ca2+]i imaging after addition of Wnt ligand, 253J; type: cell-based, human; details: 253J cells
Experimental: The imaging protocol was developed in the inventor's laboratory and has been described in detail, elsewhere (Wang at al., (2010) PLoS ONE 5, e10456). Briefly, 100000-200000 PC3, MCF7, 253J or Cos 7 cells were plated on 35 mm FluoroDish (WPI) and grown for 48 h; calcium indicators Fluo-4 (Invitrogen) and FuraRed (Invitrogen) at 1 ng/ml were added to FluoroDish containing only 1 ml of culture medium and incubated for 15-20 min at 37° C. The culture medium was removed and washed (×2) and replaced with 1 ml PBS. Live cell calcium Imaging was performed on an Olympus FluoView FV 1000 confocal microscope (Olympus […]) equipped with a 20× dry objective (numerical aperture=0.75). Calcium indicators were excited with an argon laser line (488 nm) and emissions recorded in the green channel (500-560 nm) for Fluo-4 and red channel (600-700 nm) for FuraRed after addition of vehicle control (PBS) or Wnt X (30-600 ng/ml). Images were acquired every 1.1 or 2.2 seconds for up to 600-800s; image and data acquisition was performed using FluoView 1000 software (Olympus, UK). Fluorescent intensity was measured and data exported as a tab delimited file for further analysis using a spreadsheet. All imaging experiments were performed in duplicate; intracellular calcium at 100 ng/ml was measured in at least 3-12 different passages (passage numbers 25 to 37) of cell line for each Wnt ligand. Wnt 11 was tested in at least 5 different passages at 3 different concentrations. […] The measurements were exported as a tab delimited file into a spreadsheet for further analysis and Fluo4/Fura Red ratios were calculated. […] The time constants (rise, dwell and fall times) were calculated by first fitting the Fluo4/FuraRed ratio to a single Gaussian function (Origin Lab Corp., MA); a lower (10%) and upper (90%) amplitude thresholding method was then used to calculate the time constants (s). Statistical significance was calculated using Mann Whitney U test.

[2] = tested on: β-catenin translocation to the nucleus; experiment: β-catenin immunocytochemistry, 253J; type: cell-based, human; details: 253J bladder cancer cell line
Experimental: Immunostaining was performed in two different laboratories, independently with the experimenter blind to the identity of the treatment. Either cells used in FluoroDish, post [Ca^2+]i experiments using dyes (see above) or grown in 8 well chamber glass slides (Lab Tek II, Nunc) were used. For Wnt ligand treatment, the culture medium replaced with PBS (without calcium) at 37° C. The experiments were replicated for Wnt ligand or vehicle control as described for [Ca^2+]i measurements. Briefly, Wnt ligands were added and chamber slides incubated at 37° C. for up to 20 min. Chamber wells were washed 3× with 0.5 ml PBS and cells were fixed with 0.5 ml 4% formalin for 30 min at 4° C. Cells were washed 3× with ice cold PBS and stored in 0.5 ml PBS at 4° C. for immunostaining. In some experiments PC3 cells were treated with thaspsigargin as described above.
For immunostaining cells were washed twice for 5 minutes in TBST (20 mM Tris pH 7.4, 0.9% NaCl, 0.1% Tween 20, Sigma). Cells were then incubated in 20% normal goat serum (NGS)/TBST for 30 min at room temperature, the chambers were drained and cells were incubated with mouse anti-β-catenin (ab22656, Abcam, UK) at 1:500 dilution in NGS/TBST overnight at 4° C. […]
Fluorescence immunocytochemical staining for β-catenin expression in cell lines was imaged using Olympus Fluoview 1000 Confocal Microscope (Olympus KeyMed) mounted on an Olympus IX81 inverted microscope using a 20×0.7 NA or 40×1.0 NA dry objective with a zoom of ×3.4′,6-diamidino-2-phenylindole (DAPI, nuclear counterstain) was excited at 405 nm with an emission of 415-500 nm; Cy3 (β-catenin label) signal was excited at 561 nm with an emission spectrum between 570-670 nm. […]
Nuclear co-localization of β-catenin was calculated by importing FV files for untreated, control or treated cells, into colocalization plugin of Fiji software (http://fiji.sc/Fiji) for Cy3 (β-catenin) and DAPI (nuclear) signals. […] Statistical significance between untreated and treated cells was calculated using Mann Whitney U test.

| Molecule | [Ca2+]i release in response to Wnt ligand [1] | β-catenin translocation into the nucleus after Wnt treatment [2] |
| --- | --- | --- |
| Wnt10B: Recombinant Wnt peptide purchased from R&D systems | activated [Ca^2+]i release | β-catenin translocation into the nucleus |
| Wnt9B: Recombinant Wnt peptide purchased from R&D systems (protein, UniProt O14905 23-357, looked up) Protein Wnt-9b: SYFGLTGREVLTPFPGLGTAAAPAQGGAHLKQCDLLKLSRRQKQLCRREPGLAETLRDAAHLGLLECQFQFRHERWNCSLEGRMGLLKRGFKETAFLYAVSSAALTHTLARACSAGRMERCTCDDSPGLESRQAWQWGVCGDNLKYSTKFLSNFLGSKRGNKDLRARADAHNTHVGIKAVKSGLRTTCKCHGVSGSCAVRTCWKQLSPFRETGQVLKLRYDSAVKVSSATNEALGRLELWAPARQGSLTKGLAPRSGDLVYMEDSPSFCRPSKYSPGTAGRVCSREASCSSLCCGRGYDTQSRLVAFSCHCQVQWCCYVECQQCVQEELVYTCKH | activated [Ca^2+]i release | β-catenin translocation into the nucleus |
| Wnt5A: Recombinant Wnt peptide purchased from R&D systems (protein, UniProt P41221 62-380, looked up) Protein Wnt-5a: IIGAQPLCSQLAGLSQGQKKLCHLYQDHMQYIGEGAKTGIKECQYQFRHRRWNCSTVDNTSVFGRVMQIGSRETAFTYAVSAAGVVNAMSRACREGELSTCGCSRAARPKDLPRDWLWGGCGDNIDYGYRFAKEFVDARERERIHAKGSYESARILMNLHNNEAGRRTVYNLADVACKCHGVSGSCSLKTCWLQLADFRKVGDALKEKYDSAAAMRLNSRGKLVQVNSRFNSPTTQDLVYIDPSPDYCVRNESTGSLGTQGRLCNKTSEGMDGCELMCCGRGYDQFKTVQTERCHCKFHWCCYVKCKKCTEIVDQFVCK | activated [Ca^2+]i release | β-catenin translocation into the nucleus |
